In publication PMC10018365, “Cryo-EM structure of the fully assembled Elongator complex” (Nucleic Acids Research, 2023):

Key:
Details in all cases: both partners purified
[1] = target: T1, Saccharomyces cerevisiae Elp1 (Saccharomyces cerevisiae, UniProt Q06706 1-1349); experiment: cryo-EM structure; ScElp123 with yeast tRNA Ala UGC (3-5 molar excess, 15 min on ice), 3.96 Å
T1 construct: Elp1, S. cerevisiae, full-length ORF; also called ScElp1; source: S. cerevisiae DS1-2b, overexpressed, purified within ScElongator
T1 sequence (looked up): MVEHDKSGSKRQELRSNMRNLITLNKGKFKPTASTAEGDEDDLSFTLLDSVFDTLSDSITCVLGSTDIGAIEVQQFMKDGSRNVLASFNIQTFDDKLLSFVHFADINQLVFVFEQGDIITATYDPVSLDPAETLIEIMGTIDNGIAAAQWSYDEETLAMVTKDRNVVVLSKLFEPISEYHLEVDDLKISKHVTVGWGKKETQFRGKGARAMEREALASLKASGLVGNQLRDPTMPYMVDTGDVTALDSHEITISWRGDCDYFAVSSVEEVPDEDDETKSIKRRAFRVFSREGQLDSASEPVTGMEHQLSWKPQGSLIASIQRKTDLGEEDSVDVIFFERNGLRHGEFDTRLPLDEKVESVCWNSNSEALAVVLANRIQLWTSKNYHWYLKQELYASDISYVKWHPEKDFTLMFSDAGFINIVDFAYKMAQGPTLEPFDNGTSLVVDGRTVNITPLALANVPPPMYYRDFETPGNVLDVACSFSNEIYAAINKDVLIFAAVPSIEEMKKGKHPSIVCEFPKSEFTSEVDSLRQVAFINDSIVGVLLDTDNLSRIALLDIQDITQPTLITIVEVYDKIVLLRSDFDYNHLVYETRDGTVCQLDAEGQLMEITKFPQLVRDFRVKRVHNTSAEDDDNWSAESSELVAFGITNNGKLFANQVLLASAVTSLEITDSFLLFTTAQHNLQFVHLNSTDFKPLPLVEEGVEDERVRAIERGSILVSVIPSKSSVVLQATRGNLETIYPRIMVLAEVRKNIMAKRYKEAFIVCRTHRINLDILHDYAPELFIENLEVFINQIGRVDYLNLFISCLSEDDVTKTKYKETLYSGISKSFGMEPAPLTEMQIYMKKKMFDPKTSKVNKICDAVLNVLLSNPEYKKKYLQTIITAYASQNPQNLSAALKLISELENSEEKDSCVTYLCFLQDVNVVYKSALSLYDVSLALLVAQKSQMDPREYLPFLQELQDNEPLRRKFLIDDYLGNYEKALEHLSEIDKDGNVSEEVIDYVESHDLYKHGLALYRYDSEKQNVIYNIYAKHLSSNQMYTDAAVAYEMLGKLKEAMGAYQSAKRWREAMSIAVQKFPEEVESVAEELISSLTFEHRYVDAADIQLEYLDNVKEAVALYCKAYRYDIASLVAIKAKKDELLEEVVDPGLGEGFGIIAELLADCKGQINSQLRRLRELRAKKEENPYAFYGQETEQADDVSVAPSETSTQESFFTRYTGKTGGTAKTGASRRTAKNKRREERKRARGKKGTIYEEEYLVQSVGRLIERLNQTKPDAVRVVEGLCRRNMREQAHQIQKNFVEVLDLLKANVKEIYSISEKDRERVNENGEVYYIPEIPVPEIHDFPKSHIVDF

[2] = target: T2, Saccharomyces cerevisiae Elp2 (Saccharomyces cerevisiae, UniProt P42935 1-788); experiment: as above
T2 construct: Elp2, S. cerevisiae, full-length ORF; also called ScElp2; source: S. cerevisiae DS1-2b, overexpressed, purified within ScElongator
T2 sequence (looked up): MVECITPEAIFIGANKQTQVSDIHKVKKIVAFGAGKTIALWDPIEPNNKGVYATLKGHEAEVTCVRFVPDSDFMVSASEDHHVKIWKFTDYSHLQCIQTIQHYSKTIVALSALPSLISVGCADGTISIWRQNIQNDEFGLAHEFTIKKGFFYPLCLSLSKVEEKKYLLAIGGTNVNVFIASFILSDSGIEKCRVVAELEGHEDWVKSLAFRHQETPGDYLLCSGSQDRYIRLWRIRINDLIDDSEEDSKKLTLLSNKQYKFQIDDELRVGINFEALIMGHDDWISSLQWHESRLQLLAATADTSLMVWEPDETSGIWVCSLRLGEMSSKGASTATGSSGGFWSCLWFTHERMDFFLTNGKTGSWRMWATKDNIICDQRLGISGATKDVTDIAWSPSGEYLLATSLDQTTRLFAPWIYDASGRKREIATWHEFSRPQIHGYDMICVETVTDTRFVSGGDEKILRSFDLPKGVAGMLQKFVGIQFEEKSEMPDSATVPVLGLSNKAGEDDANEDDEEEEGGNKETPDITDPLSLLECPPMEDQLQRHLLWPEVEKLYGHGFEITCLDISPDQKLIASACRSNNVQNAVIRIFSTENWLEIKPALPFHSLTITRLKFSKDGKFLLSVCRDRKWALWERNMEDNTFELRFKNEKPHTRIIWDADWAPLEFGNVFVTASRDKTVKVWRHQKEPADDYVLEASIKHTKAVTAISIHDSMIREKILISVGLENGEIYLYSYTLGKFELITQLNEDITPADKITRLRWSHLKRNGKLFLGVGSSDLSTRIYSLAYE

[3] = target: T3, Mus musculus Elp123 subcomplex (Mus musculus, UniProt Q7TT37 1-1333; Q91WG4 1-831; Q9CZX0 1-547); experiment: cryo-EM structure; MmElongator reconstituted from purified MmElp123 and MmElp456 and re-purified by gel filtration, 5.9 Å
T3 construct: Elp1, mouse, ORF; Elp2, mouse, ORF; Elp3, mouse, ORF; Gel filtration at about 610 kDa; also called MmElp123; mouse Elp123; source: Super Sf9-1 insect cells (baculovirus, biGBac), purified (StrepTrap, heparin, Superose 6); not shown: Twin-Strep-tag, C-terminal, kept; copies: 2 + 2 + 2
T3 sequence (Q7TT37 whole entry, chain 1 of 3): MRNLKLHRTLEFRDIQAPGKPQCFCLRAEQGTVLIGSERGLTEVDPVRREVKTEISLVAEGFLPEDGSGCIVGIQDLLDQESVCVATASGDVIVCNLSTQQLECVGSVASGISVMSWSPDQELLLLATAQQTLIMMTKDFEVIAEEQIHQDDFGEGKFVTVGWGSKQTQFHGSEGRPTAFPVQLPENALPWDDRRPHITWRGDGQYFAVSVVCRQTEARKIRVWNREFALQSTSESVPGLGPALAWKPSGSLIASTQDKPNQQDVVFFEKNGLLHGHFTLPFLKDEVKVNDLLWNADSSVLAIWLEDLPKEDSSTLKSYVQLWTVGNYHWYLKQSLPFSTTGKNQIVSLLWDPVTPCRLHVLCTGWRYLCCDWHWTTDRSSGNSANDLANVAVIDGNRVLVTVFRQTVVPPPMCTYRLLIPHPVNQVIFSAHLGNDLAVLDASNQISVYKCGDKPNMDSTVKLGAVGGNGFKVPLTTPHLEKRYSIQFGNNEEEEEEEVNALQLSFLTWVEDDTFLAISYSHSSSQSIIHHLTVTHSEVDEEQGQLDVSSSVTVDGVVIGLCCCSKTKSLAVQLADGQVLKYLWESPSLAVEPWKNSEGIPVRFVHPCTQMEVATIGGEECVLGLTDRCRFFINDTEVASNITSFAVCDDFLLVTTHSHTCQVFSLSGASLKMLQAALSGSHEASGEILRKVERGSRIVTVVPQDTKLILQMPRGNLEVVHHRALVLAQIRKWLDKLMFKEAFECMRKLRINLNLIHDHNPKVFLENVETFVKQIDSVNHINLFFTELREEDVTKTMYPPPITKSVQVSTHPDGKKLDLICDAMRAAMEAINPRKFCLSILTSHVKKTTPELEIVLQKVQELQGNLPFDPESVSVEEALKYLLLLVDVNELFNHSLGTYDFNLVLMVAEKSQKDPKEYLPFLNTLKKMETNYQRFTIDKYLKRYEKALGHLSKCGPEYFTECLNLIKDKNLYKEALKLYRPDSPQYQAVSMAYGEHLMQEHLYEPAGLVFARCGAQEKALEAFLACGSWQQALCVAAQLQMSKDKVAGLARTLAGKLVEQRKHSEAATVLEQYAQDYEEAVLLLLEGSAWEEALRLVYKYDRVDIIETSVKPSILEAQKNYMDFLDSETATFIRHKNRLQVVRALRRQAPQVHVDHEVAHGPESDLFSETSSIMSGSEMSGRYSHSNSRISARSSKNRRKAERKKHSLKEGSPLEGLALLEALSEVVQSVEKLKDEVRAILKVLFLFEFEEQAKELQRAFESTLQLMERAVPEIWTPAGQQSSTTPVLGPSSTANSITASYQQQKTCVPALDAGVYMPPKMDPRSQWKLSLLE
T3 sequence (Q91WG4 whole entry, chain 2 of 3): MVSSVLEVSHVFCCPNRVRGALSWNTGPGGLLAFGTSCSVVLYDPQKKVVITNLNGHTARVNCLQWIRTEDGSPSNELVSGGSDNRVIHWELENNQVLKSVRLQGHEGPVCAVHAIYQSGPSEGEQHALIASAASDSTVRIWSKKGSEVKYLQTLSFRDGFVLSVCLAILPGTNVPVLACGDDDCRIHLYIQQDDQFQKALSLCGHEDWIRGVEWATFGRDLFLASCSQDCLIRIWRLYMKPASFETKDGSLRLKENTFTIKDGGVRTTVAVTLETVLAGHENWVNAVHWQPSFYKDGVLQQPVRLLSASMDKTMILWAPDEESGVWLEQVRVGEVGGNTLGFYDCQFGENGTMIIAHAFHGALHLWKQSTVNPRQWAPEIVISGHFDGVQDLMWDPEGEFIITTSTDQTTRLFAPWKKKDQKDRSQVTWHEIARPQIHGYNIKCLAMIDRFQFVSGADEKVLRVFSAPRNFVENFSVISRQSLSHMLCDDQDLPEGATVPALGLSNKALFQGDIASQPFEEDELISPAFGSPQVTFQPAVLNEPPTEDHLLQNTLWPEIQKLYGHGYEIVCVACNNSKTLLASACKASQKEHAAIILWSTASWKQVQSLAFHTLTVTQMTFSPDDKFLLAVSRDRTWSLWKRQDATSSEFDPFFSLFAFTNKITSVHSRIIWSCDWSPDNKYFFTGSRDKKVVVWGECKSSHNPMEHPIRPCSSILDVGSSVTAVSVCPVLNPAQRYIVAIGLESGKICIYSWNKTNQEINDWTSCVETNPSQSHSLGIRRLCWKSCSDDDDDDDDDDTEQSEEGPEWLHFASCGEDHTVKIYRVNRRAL
T3 sequence (Q9CZX0 whole entry, chain 3 of 3): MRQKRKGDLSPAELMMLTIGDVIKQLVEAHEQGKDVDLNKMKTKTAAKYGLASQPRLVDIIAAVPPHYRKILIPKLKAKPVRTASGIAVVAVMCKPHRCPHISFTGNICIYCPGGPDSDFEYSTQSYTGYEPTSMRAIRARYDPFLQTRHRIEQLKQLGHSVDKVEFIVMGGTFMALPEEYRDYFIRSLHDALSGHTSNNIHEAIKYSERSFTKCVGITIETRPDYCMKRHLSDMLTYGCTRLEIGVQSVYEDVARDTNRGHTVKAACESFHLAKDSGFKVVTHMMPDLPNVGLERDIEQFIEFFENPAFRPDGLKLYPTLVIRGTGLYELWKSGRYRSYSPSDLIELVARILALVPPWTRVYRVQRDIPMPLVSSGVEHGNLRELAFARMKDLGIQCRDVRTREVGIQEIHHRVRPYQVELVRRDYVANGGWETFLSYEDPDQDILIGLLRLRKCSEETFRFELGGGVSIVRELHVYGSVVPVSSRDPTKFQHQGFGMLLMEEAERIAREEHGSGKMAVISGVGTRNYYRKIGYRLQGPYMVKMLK

[4] = target: T4, Homo sapiens Elp123 subcomplex with Elp1 Δ1132–1224 (Homo sapiens, UniProt O95163 1-1332; Q6IA86 1-826; Q9H9T3 1-547, Δ1132–1224); experiment: pull-down; 10 μg bait, 20 μg prey; Elp123 on StrepTactin Sepharose by Twin-Strep-tagged Elp3, or Elp456 on anti-DYKDDDDK resin by FLAG-tagged Elp6; 30-60 min at 4°C; washes in 20 mM HEPES pH 7.5, 100 mM NaCl, 1 mM DTT, 0.05% Tween 20; SDS-PAGE with Coomassie or silver stain; also with ATP and bulk tRNA
T4 construct: Elp2, human, ORF; Elp3, human, ORF; source: Sf9-3 insect cells (baculovirus, biGBac), purified (StrepTrap, heparin, Superose 6); not shown: Twin-Strep-tag, C-terminal, kept; copies: 2 + 2 + 2

[5] = target: T5, Homo sapiens Elp123 subcomplex, wild type (Homo sapiens, UniProt O95163 1-1332; Q6IA86 1-826; Q9H9T3 1-547); experiment: SEC; Elp123 incubated with the respective Elp456 for 30 min at 25°C at 1:2 weight ratio, then Superose 6 Increase 10/300 GL in 20 mM HEPES pH 7.5, 100 mM NaCl, 5 mM DTT
T5 construct: Elp1, human, ORF; Elp2, human, ORF; Elp3, human, ORF; also called human Elp123; source: Sf9-3 insect cells (baculovirus, biGBac), purified (StrepTrap, heparin, Superose 6); not shown: Twin-Strep-tag, C-terminal, kept; copies: 2 + 2 + 2

B1: Saccharomyces cerevisiae Elp3 (enzyme, UniProt Q02908 1-557, looked up)
chain: MARHGKGPKTNKKKLAPEKERFIQCCADITLELTDSLTSGTTREINLNGLITKYSKKYKLKQQPRLTDIINSIPDQYKKYLLPKLKAKPVRTASGIAVVAVMCKPHRCPHIAYTGNICVYCPGGPDSDFEYSTQSYTGYEPTSMRAIRARYDPYEQARGRVEQLKQLGHSIDKVEYVLMGGTFMSLPKEYREDFIVKLHNALSGFNGNDIDEAILYSQQSLTKCVGITIETRPDYCTQTHLDDMLKYGCTRLEIGVQSLYEDVARDTNRGHTVRSVCETFAVSKDAGYKVVSHMMPDLPNVGMERDIEQFKEYFENPDFRTDGLKIYPTLVIRGTGLYELWKTGRYKSYSANALVDLVARILALVPPWTRIYRVQRDIPMPLVTSGVDNGNLRELALARMKDLGTTCRDVRTREVGIQEVHHKVQPDQVELIRRDYYANGGWETFLSYEDPKKDILIGLLRLRKASKKYTYRKEFTSQRTSIVRELHVYGSVVPLHSRDPRKFQHQGFGTLLMEEAERIAKEEHGSEKISVISGVGVRNYYGKLGYELDGPYMSKRI
notes: Elp3, S. cerevisiae, full-length ORF; also called ScElp3; source: S. cerevisiae DS1-2b, overexpressed, purified within ScElongator; not shown: Twin-Strep-tag, C-terminal, kept
binding result [1]: binds
binding result [2]: binds

B2: Mus musculus Elp456 subcomplex (complex)
chain 1: MAAADTCGAGTLSSRSVASEAGQGGTSSFQRKGKASGGPGGGPRLLSIAGTRPSVRNGQLLVSTGLPALDQLLGGGLAVGTLLLIEEDKYNIYSPLLFKYFMAEGIINGHTLLVASAKENPAKILQELPAPLLDDNSKKELEDVHSAKTPEPNVNMKIAWRYQLQPKMEVGPVSSSRFGHYYDLSKRIPWELLQSSKWHGFFLPEHISPDLKGESCFLSCGYMRLLEFIQKSVYAEGFDGANPQKKQKNILRIGIQNLGSPLWGDDICCKENCDNNHRLTKFLYILRGLLRSSLSACIITMPAHLVQNKSITTRVRNLSDTVVGLESFIGSERETNPLYKDYHGLIHIRKIPRLNNLTCDESDVKDLAFKLKRKLFTIERLHLPPDLSDTVGRSSKQDLAASTARLGAGCSSMAEGKKHLDF
chain 2: MLDSLLAIGGLVLLRDSVEWEGRSLLKALIKKSALRGEQVHVLGCEVSEEEFREGFDSDVNSRLVYHDLFRDPLNWSKPGEAVPEGPLKALRSMCKRTDHGSVTIALDSLSWLLCHIPCVTLCQALHALSQQNGDPGDNSLVEQVRVLGLLHEELHGPGSMGALNTLAHTEVTLSGKVDQTSASILCRRPQQRATYQTWWFSVLPDFSLTLHEGLPLRSELHPDHHTTQVDPTAHLTFNLHLSKKEREARDSLTLPFQFSSEKQKALLHPVPSRTTGHIFYEPDAFDDVDPEDPDDDLDI
chain 3: MFPELNNLLSTTPDKTEQGTLTLLCDAKTDGSFLVHHFLSFYLKANCKVCFVALVQSFSHYNIVGQKLGVSLTAARDRGQLVFLEGLKSSVEVLFHSQDEPHPLQFLREAGTGNLQSLYTFIQDTLKPADSEESPWKYPVLLVDNLSVLLSLGVGAVAVLDFMQYCRATVCCELKGNVVALVHDTEGATDEGNDTLLNGLSHQSHLILRAEGLATGFCKDVHGQLSILWRRPSRSTAQRAQSLTYQYKIQDKNVSFFAKGMSPAVL
notes: Elp4, mouse, ORF; Elp5, mouse, ORF; Elp6, mouse, ORF; Gel filtration at about 220 kDa; also called MmElp456; mouse Elp456; source: Hi-5 insect cells (baculovirus, biGBac), purified (IgG Sepharose with TEV elution, Superose 6); not shown: FLAG, C-terminal, kept; Protein A, C-terminal, cleaved; copies: 2 + 2 + 2
stoichiometry N [3]: 1

B3: Homo sapiens Elp456 subcomplex, wild type (complex)
chain 1: MAAVATCGSVAASTGSAVATASKSNVTSFQRRGPRASVTNDSGPRLVSIAGTRPSVRNGQLLVSTGLPALDQLLGGGLAVGTVLLIEEDKYNIYSPLLFKYFLAEGIVNGHTLLVASAKEDPANILQELPAPLLDDKCKKEFDEDVYNHKTPESNIKMKIAWRYQLLPKMEIGPVSSSRFGHYYDASKRMPQELIEASNWHGFFLPEKISSTLKVEPCSLTPGYTKLLQFIQNIIYEEGFDGSNPQKKQRNILRIGIQNLGSPLWGDDICCAENGGNSHSLTKFLYVLRGLLRTSLSACIITMPTHLIQNKAIIARVTTLSDVVVGLESFIGSERETNPLYKDYHGLIHIRQIPRLNNLICDESDVKDLAFKLKRKLFTIERLHLPPDLSDTVSRSSKMDLAESAKRLGPGCGMMAGGKKHLDF
chain 2: MLDSLLALGGLVLLRDSVEWEGRSLLKALVKKSALCGEQVHILGCEVSEEEFREGFDSDINNRLVYHDFFRDPLNWSKTEEAFPGGPLGALRAMCKRTDPVPVTIALDSLSWLLLRLPCTTLCQVLHAVSHQDSCPGDSSSVGKVSVLGLLHEELHGPGPVGALSSLAQTEVTLGGTMGQASAHILCRRPRQRPTDQTQWFSILPDFSLDLQEGPSVESQPYSDPHIPPVDPTTHLTFNLHLSKKEREARDSLILPFQFSSEKQQALLRPRPGQATSHIFYEPDAYDDLDQEDPDDDLDI
chain 3: MFVELNNLLNTTPDRAEQGKLTLLCDAKTDGSFLVHHFLSFYLKANCKVCFVALIQSFSHYSIVGQKLGVSLTMARERGQLVFLEGLKSAVDVVFQAQKEPHPLQFLREANAGNLKPLFEFVREALKPVDSGEARWTYPVLLVDDLSVLLSLGMGAVAVLDFIHYCRATVCWELKGNMVVLVHDSGDAEDEENDILLNGLSHQSHLILRAEGLATGFCRDVHGQLRILWRRPSQPAVHRDQSFTYQYKIQDKSVSFFAKGMSPAVL
notes: Elp4, human, ORF; Elp5, human, ORF; Elp6, human, ORF; also called human Elp456; source: Hi-5 insect cells (baculovirus, biGBac), purified (IgG Sepharose with TEV elution, Superose 6); not shown: FLAG, C-terminal, kept; Protein A, C-terminal, cleaved; copies: 2 + 2 + 2
binding result [4]: binds
binding result [5]: binds
